{
  "source": "patent US20030068675",
  "about": "“Position dependent recognition of GNN nucleotide triplets by zinc fingers” (published 2003)",
  "binders": {"B1": {"name": "GCAGAGGAA (dsDNA)", "DNA 1": "GCAGAGGAA", "DNA 2": "TTCCTCTGC"}, "B2": {"name": "AAGTGGTAG (dsDNA)", "DNA 1": "AAGTGGTAG", "DNA 2": "CTACCACTT"}, "B3": {"name": "TTGGGGGAG (dsDNA)", "DNA 1": "TTGGGGGAG", "DNA 2": "CTCCCCCAA"}, "B4": {"name": "GAGGCTCTT (dsDNA)", "DNA 1": "GAGGCTCTT", "DNA 2": "AAGAGCCTC"}, "B5": {"name": "GAGGTTGAT (dsDNA)", "DNA 1": "GAGGTTGAT", "DNA 2": "ATCAACCTC"}, "B6": {"name": "GCAATGGGT (dsDNA)", "DNA 1": "GCAATGGGT", "DNA 2": "ACCCATTGC"}, "B7": {"name": "GAGTGTGTGA (dsDNA)", "DNA 1": "GAGTGTGTGA", "DNA 2": "TCACACACTC"}, "B8": {"name": "GGGTTTGAC (dsDNA)", "DNA 1": "GGGTTTGAC", "DNA 2": "GTCAAACCC"}},
  "assay_in_all_cases": "EMSA",
  "settings_in_all_cases": "tags: MBP fusion",
  "key": {"ZFP SBS#1500": {"molecular_target": "ZFP SBS#1500 (synthetic)", "method_in_brief": "(§1)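 Purified ZFP was titrated against labeled double-stranded target (1 nM or lower, at least 10-fold below expected Kd) carrying the natural binding site with flanks. Binding buffer was 10 mM Tris pH 7.5, 100 mM KCl, 1 mM MgCl2, 0.1 mM ZnCl2, 5 mM DTT, 10% glycerol, 0.02% BSA, with equilibration for at least 45 min. Bound and free target were separated on a 10% polyacrylamide gel.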"}, "ZFP SBS#1457": {"molecular_target": "ZFP SBS#1457 (synthetic)", "sequence (chain, as listed by the source)": "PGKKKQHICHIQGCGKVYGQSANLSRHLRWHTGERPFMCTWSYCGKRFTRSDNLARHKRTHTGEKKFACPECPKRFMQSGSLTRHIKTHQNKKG", "method_in_brief": "as §1"}, "ZFP SBS#1488": {"molecular_target": "ZFP SBS#1488 (synthetic)", "sequence (chain, as listed by the source)": "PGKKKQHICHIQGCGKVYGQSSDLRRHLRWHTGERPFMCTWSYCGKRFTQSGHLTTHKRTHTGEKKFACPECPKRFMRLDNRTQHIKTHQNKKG", "method_in_brief": "as §1"}, "ZFP SBS#1493": {"molecular_target": "ZFP SBS#1493 (synthetic)", "method_in_brief": "as §1"}, "ZFP SBS#1492": {"molecular_target": "T1, ZFP SBS#1492 (synthetic)", "T1 chain": "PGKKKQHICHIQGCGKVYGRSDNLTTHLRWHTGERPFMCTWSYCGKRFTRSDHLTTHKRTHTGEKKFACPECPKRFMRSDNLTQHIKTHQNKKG", "method_in_brief": "as §1"}, "ZFP SBS#1496": {"molecular_target": "ZFP SBS#1496 (synthetic)", "sequence (chain, as listed by the source)": "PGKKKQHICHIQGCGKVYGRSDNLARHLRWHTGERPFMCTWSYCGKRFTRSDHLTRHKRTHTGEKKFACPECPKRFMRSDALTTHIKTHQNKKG", "method_in_brief": "as §1"}, "ZFP SBS#1460": {"molecular_target": "T2, ZFP SBS#1460 (synthetic)", "T2 chain": "T1 chain with T25A, T26R, T56R, S79A, N81A, T83M, Q84V", "method_in_brief": "as §1"}, "ZFP SBS#1497": {"molecular_target": "ZFP SBS#1497 (synthetic)", "method_in_brief": "as §1"}, "ZFP SBS#1498": {"molecular_target": "T3, ZFP SBS#1498 (synthetic)", "T3 chain": "T1 chain with R20Q, D22S, T25A, T26R, R50Q, D52S, H53A, T56R, T83A, Q84R", "method_in_brief": "as §1"}, "ZFP SBS#1499": {"molecular_target": "T4, ZFP SBS#1499 (synthetic)", "T4 chain": "T1 chain with R20Q, D22S, T25A, T26R, R50T, D52G, H53A, T56R, T83A, Q84R", "method_in_brief": "as §1"}, "ZFP SBS#1522": {"molecular_target": "ZFP SBS#1522 (synthetic)", "sequence (chain, as listed by the source)": "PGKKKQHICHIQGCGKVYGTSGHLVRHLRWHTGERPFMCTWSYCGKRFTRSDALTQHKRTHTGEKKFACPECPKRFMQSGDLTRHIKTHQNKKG", "method_in_brief": "as §1"}, "ZFP SBS#550": {"molecular_target": "T5, ZFP SBS#550 (synthetic)", "T5 chain": "T1 chain with S21K, N23S, T25V, T26R, R50T, S51K, T55A, T56S, Q84R", "method_in_brief": "as §1"}, "ZFP SBS#549": {"molecular_target": "T6, ZFP SBS#549 (synthetic)", "T6 chain": "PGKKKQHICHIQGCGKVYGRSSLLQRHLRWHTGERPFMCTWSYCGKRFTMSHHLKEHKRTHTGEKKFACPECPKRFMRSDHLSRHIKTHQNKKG", "method_in_brief": "as §1"}, "ZFP SBS#554": {"molecular_target": "T7, ZFP SBS#554 (synthetic)", "T7 chain": "T1 chain with S21K, N23S, T25V, T26R, R50T, T55A, T56S, T83A, Q84R", "method_in_brief": "as §1"}, "ZFP SBS#545": {"molecular_target": "T8, ZFP SBS#545 (synthetic)", "T8 chain": "T1 chain with S21K, N23S, T25V, T26R, R50T, T55A, T56S, Q84R", "method_in_brief": "as §1"}, "ZFP SBS#553": {"molecular_target": "T9, ZFP SBS#553 (synthetic)", "T9 chain": "T6 chain with S22D, L23S, Q25L, H81N, S83T", "method_in_brief": "as §1"}, "ZFP SBS#546": {"molecular_target": "ZFP SBS#546 (synthetic)", "sequence (chain, as listed by the source)": "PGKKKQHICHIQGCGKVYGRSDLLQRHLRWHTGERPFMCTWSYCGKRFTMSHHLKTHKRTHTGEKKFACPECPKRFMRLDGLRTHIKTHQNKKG", "method_in_brief": "as §1"}, "ZFP SBS#548": {"molecular_target": "T10, ZFP SBS#548 (synthetic)", "T10 chain": "T6 chain with E56T", "method_in_brief": "as §1"}, "ZFP SBS#560": {"molecular_target": "T11, ZFP SBS#560 (synthetic)", "T11 chain": "T6 chain with E56T", "method_in_brief": "as §1"}, "ZFP SBS#544": {"molecular_target": "T12, ZFP SBS#544 (synthetic)", "T12 chain": "T6 chain with S22D, L23S, Q25L, H81N, S83A", "method_in_brief": "as §1"}, "ZFP SBS#543": {"molecular_target": "ZFP SBS#543 (synthetic)", "method_in_brief": "as §1"}, "ZFP SBS#551": {"molecular_target": "ZFP SBS#551 (synthetic)", "method_in_brief": "as §1"}, "ZFP SBS#552": {"molecular_target": "T13, ZFP SBS#552 (synthetic)", "T13 chain": "T6 chain with S21K, S22D, L23S, Q25V, E56T, H81N, S83T", "method_in_brief": "as §1"}, "ZFP SBS#547": {"molecular_target": "T14, ZFP SBS#547 (synthetic)", "T14 chain": "T1 chain with S21K, N23S, T25V, T26R, R50T, D52G, T56S, Q84R", "method_in_brief": "as §1"}, "ZFP SBS#1486": {"molecular_target": "T15, ZFP SBS#1486 (synthetic)", "T15 chain": "T6 chain with R20D, S21R, L23N, Q25T, M50T, S51T, H52S, H53A, K55A, E56S", "method_in_brief": "as §1"}, "ZFP SBS#1494": {"molecular_target": "T16, ZFP SBS#1494 (synthetic)", "T16 chain": "T6 chain with R20D, S21R, L23N, Q25T, M50Q, S51R, H52S, H53A, K55A, E56S", "method_in_brief": "as §1"}},
  "note": "Where a chain is given by its changes, count along the chain named.",
  "data": [
    {"binder": "B1", "values": [
      {"measurement": "Kd", "setting": "ZFP SBS#1500", "result": 0.003, "unit": "nM"},
      {"measurement": "Kd", "setting": "ZFP SBS#1457", "result": 0.014, "unit": "nM"}
    ]},
    {"binder": "B2", "values": [
      {"measurement": "Kd", "setting": "ZFP SBS#1488", "result": 5.64, "unit": "nM"},
      {"measurement": "Kd", "setting": "ZFP SBS#1493", "result": 15.1, "unit": "nM"},
      {"measurement": "Kd", "setting": "ZFP SBS#1492", "result": 1.37, "unit": "nM"}
    ]},
    {"binder": "B3", "values": [
      {"measurement": "Kd", "setting": "ZFP SBS#1496", "result": 0.065, "unit": "nM"},
      {"measurement": "Kd", "setting": "ZFP SBS#1460", "result": 0.007, "unit": "nM"}
    ]},
    {"binder": "B4", "values": [
      {"measurement": "Kd", "setting": "ZFP SBS#1497", "result": 0.007, "unit": "nM"}
    ]},
    {"binder": "B5", "values": [
      {"measurement": "Kd", "setting": "ZFP SBS#1498", "result": 0.101, "unit": "nM"},
      {"measurement": "Kd", "setting": "ZFP SBS#1499", "result": 0.02, "unit": "nM"}
    ]},
    {"binder": "B6", "values": [
      {"measurement": "Kd", "setting": "ZFP SBS#1522", "result": 0.08, "unit": "nM"}
    ]},
    {"binder": "B7", "values": [
      {"measurement": "Kd", "setting": "ZFP SBS#550", "result": 20, "unit": "nM"},
      {"measurement": "Kd", "setting": "ZFP SBS#549", "result": 500, "unit": "nM"},
      {"measurement": "Kd", "setting": "ZFP SBS#554", "result": 62.5, "unit": "nM"},
      {"measurement": "Kd", "setting": "ZFP SBS#545", "result": 32, "unit": "nM"},
      {"measurement": "Kd", "setting": "ZFP SBS#553", "result": 125, "unit": "nM"},
      {"measurement": "Kd", "setting": "ZFP SBS#546", "result": 500, "unit": "nM"},
      {"measurement": "Kd", "setting": "ZFP SBS#548", "result": 500, "unit": "nM"},
      {"measurement": "Kd", "setting": "ZFP SBS#560", "result": 500, "unit": "nM"},
      {"measurement": "Kd", "setting": "ZFP SBS#544", "result": 125, "unit": "nM"},
      {"measurement": "Kd", "setting": "ZFP SBS#543", "result": 50, "unit": "nM"},
      {"measurement": "Kd", "setting": "ZFP SBS#551", "result": 50, "unit": "nM"},
      {"measurement": "Kd", "setting": "ZFP SBS#552", "result": 31, "unit": "nM"},
      {"measurement": "Kd", "setting": "ZFP SBS#547", "result": 500, "unit": "nM"}
    ]},
    {"binder": "B8", "values": [
      {"measurement": "Kd", "setting": "ZFP SBS#1486", "result": 0.085, "unit": "nM"},
      {"measurement": "Kd", "setting": "ZFP SBS#1494", "result": 0.255, "unit": "nM"}
    ]}
  ]
}
